The target of the experiment is L-19437_(D-Pep-1). Kind of experiment: ITC; MicroCal PEAQ-ITC, 19 injections; peptide titrated over the binder (L-19437 15 uM, D-Pep-1 150 uM); PBS pH 7.4; One Set of Sites mode. On the technique in general: ITC needs no label: the signal is the heat of the interaction.

Usually Kd stands for the concentration at which binding is half-saturated. Higher therefore signals lower affinity. Broadly, the stoichiometry N is the number of molecules, sites or subunits per partner or assembly.

Square brackets hold non-standard residues; d marks the D form. Ends that are not written are not given here. * marks the point of attachment. Biotin = O=C1N[C@H]2[C@H](CS[C@H]2CCCCC(=O)*)N1

For Biotin-[dD][dE][dH][dE][dL][dL][dE][dT][dA][dA][dR][dW][dF][dY][dE][dI][dA][dK][dR][dA] [D-Pep-1], the Kd worked out at 48.7 nM and the stoichiometry N stood at 0.938 sites.

For the origin of these results see paper PMC11614891.
